The subject of data set [1] is HeLa Kyoto. Put plainly: solubility change mitosis vs G1/S (difference of NP-40 vs SDS log2 ratios) (log2 ratio difference); higher = more soluble in mitosis.
For data set [2], the system named is HeLa Kyoto. Put plainly: solubility in G1/S (NP-40 vs SDS abundance) (log2 ratio); higher = more soluble. As to conditions: cell cycle stage: G1/S.
Data set [3] relates to HeLa Kyoto. The data set can be described thus: thermal stability score vs G1/S (z-score of summed log2 fold changes over temperatures); higher = more thermally stable than in G1/S.
Data set [4] relates to HeLa Kyoto. Put plainly: melting temperature (median over replicates), in situ; higher = more thermally stable.
[5] abbreviates: cell cycle stage: early G1 (4.5 h after nocodazole release).
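Wherever melting temperature (median over replicates), in situ is given: HeLa Kyoto cells synchronized by double thymidine or nocodazole block, proteins quantified by TMT10plex mass spectrometry, three independent biological replicates.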
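Wherever solubility change mitosis vs G1/S (difference of NP-40 vs SDS log2 ratios) is given: synchronized HeLa Kyoto cells (double thymidine block for G1/S, nocodazole release for mitosis), protein amounts in NP-40 versus SDS lysates quantified by mass spectrometry, three biological replicates.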
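Wherever solubility in G1/S (NP-40 vs SDS abundance) is given: HeLa Kyoto cells arrested at G1/S by double thymidine block, proteins quantified by TMT10plex mass spectrometry in mild NP-40 versus SDS extracts, three biological replicates.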
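Wherever thermal stability score vs G1/S (z-score of summed log2 fold changes over temperatures) is given: synchronized HeLa Kyoto cells, proteins quantified by TMT10plex mass spectrometry, three biological replicates, mitosis taken 0.5 h after nocodazole release, G1/S directly after double thymidine block.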

With “MIKKFDKKDEESGSGSNPFQHLEKSAVLQEARIFNETPINPRRCLHILTKILYLLNQGEHFGTTEATEAFFAMTRLFQSNDQTLRRMCYLTIKEMATISEDVIIVTSSLTKDMTGKEDVYRGPAIRALCRITDGTMLQAIERYMKQAIVDKVSSVSSSALVSSLHMMKISYDVVKRWINEAQEAASSDNIMVQYHALGVLYHLRKNDRLAVSKMLNKFTKSGLKSQFAYCMLIRIASRLLKETEDGHESPLFDFIESCLRNKHEMVIYEAASAIIHLPNCTARELAPAVSVLQLFCSSPKPALRYAAVRTLNKVAMKHPSAVTACNLDLENLITDSNRSIATLAITTLLKTGSESSVDRLMKQISSFVSEISDEFKVVVVQAISALCQKYPRKHSVMMTFLSNMLRDDGGFEYKRAIVDCIISIVEENPESKEAGLAHLCEFIEDCEHTVLATKILHLLGKEGPRTPVPSKYIRFIFNRVVLENEAVRAAAVSALAKFGAQNESLLPSILVLLQRCMMDTDDEVRDRATFYLNVLQQRQMALNATYIFNGLTVSVPGMEKALHQYTLEPSEKPFDMKSIPLAMAPVFEQKAEITLVATKPEKLAPSRQDIFQEQLAAIPEFLNIGPLFKSSEPVQLTEAETEYFVRCIKHMFTNHIVFQFDCTNTLNDQLLEKVTVQMEPSDSYEVLSCIPAPSLPYNQPGICYTLVRLPDDDPTAVAGSFSCTMKFTVRDCDPNTGVPDEDGYDDEYVLEDLEVTVSDHIQKVLKPNFAAAWEEVGDTFEKEETFALSSTKTLEEAVNNIITFLGMQPCERSDKVPENKNSHSLYLAGIFRGGYDLLVRSRLALADGVTMQVTVRSKERTPVDVILASVG [COPG2]”, the “solubility change mitosis (log2)” value in the data set with HeLa Kyoto [1] is -0.304. Moreover, in the data set with HeLa Kyoto [2], the “solubility in G1/S (log2)” value is -0.192. In addition, the results for the thermal stability score with HeLa Kyoto [3] (setting [5]) and in the data set with HeLa Kyoto [3] (cell cycle stage: mitosis) were 0.652 and 0.0351, respectively. Moreover, the melting temperature was determined as 52 °C with HeLa Kyoto [4] (cell cycle stage: G1/S) and 51.8 °C in the data set with HeLa Kyoto [4] (cell cycle stage: mitosis).

In the case of “MILNSLSLCYHNKLILAPMVRVGTLPMRLLALDYGADIVYCEELIDLKMIQCKRVVNEVLSTVDFVAPDDRVVFRTCEREQNRVVFQMGTSDAERALAVARLVENDVAGIDVNMGCPKQYSTKGGMGAALLSDPDKIEKILSTLVKGTRRPVTCKIRILPSLEDTLSLVKRIERTGIAAIAVHGRKREERPQHPVSCEVIKAIADTLSIPVIANGGSHDHIQQYSDIEDFRQATAASSVMVARAAMWNPSIFLKEGLRPLEEVMQKYIRYAVQYDNHYTNTKYCLCQMLREQLESPQGRLLHAAQSSREICEAFGLGAFYEETTQELDAQQARLSAKTSEQTGEPAEDTSGVIKMAVKFDRRAYPAQITPKMCLLEWCRREKLAQPVYETVQRPLDRLFSSIVTVAEQKYQSTLWDKSKKLAEQAAAIVCLRSQGLPEGRLGEESPSLHKRKREAPDQDPGGPRAQELAQPGDLCKKPFVALGSGEESPLEGW [DUS2]”, the “solubility change mitosis (log2)” value with HeLa Kyoto [1] is -0.0821. Also, the “solubility in G1/S (log2)” value with HeLa Kyoto [2] is -0.0157. Further, the thermal stability score with HeLa Kyoto [3] (setting [5]) worked out at 0.209; with HeLa Kyoto [3] (cell cycle stage: mitosis) it was 0.349. In addition, the results for the melting temperature with HeLa Kyoto [4] (cell cycle stage: G1/S) and with HeLa Kyoto [4] (cell cycle stage: mitosis) were 50.3 °C and 50.9 °C, respectively.

Take “MIPNGYLMFEDENFIESSVAKLNALRKSGQFCDVRLQVCGHEMLAHRAVLACCSPYLFEIFNSDSDPHGISHVKFDDLNPEAVEVLLNYAYTAQLKADKELVKDVYSAAKKLKMDRVKQVCGDYLLSRMDVTSCISYRNFASCMGDSRLLNKVDAYIQEHLLQISEEEEFLKLPRLKLEVMLEDNVCLPSNGKLYTKVINWVQRSIWENGDSLEELMEEVQTLYYSADHKLLDGNLLDGQAEVFGSDDDHIQFVQKKPPRENGHKQISSSSTGCLSSPNATVQSPKHEWKIVASEKTSNNTYLCLAVLDGIFCVIFLHGRNSPQSSPTSTPKLSKSLSFEMQQDELIEKPMSPMQYARSGLGTAEMNGKLIAAGGYNREECLRTVECYNPHTDHWSFLAPMRTPRARFQMAVLMGQLYVVGGSNGHSDDLSCGEMYDSNIDDWIPVPELRTNRCNAGVCALNGKLYIVGGSDPYGQKGLKNCDVFDPVTKLWTSCAPLNIRRHQSAVCELGGYLYIIGGAESWNCLNTVERYNPENNTWTLIAPMNVARRGAGVAVLNGKLFVCGGFDGSHAISCVEMYDPTRNEWKMMGNMTSPRSNAGIATVGNTIYAVGGFDGNEFLNTVEVYNLESNEWSPYTKIFQF [IVNS1ABP]”: the “solubility change mitosis (log2)” value in the data set on HeLa Kyoto [1] was -0.0597. Also, the “solubility in G1/S (log2)” value in the data set on HeLa Kyoto [2] is -0.0792. The thermal stability score is -2.78 in the data set on HeLa Kyoto [3] (setting [5]) and -1.82 in the data set with HeLa Kyoto [3] (cell cycle stage: mitosis). The results for the melting temperature in the data set on HeLa Kyoto [4] (cell cycle stage: G1/S) and in the data set on HeLa Kyoto [4] (cell cycle stage: mitosis) were 50.7 °C and 49.2 °C, respectively.

For “MIRRVLPHGMGRGLLTRRPGTRRGGFSLDWDGKVSEIKKKIKSILPGRSCDLLQDTSHLPPEHSDVVIVGGGVLGLSVAYWLKKLESRRGAIRVLVVERDHTYSQASTGLSVGGICQQFSLPENIQLSLFSASFLRNINEYLAVVDAPPLDLRFNPSGYLLLASEKDAAAMESNVKVQRQEGAKVSLMSPDQLRNKFPWINTEGVALASYGMEDEGWFDPWCLLQGLRRKVQSLGVLFCQGEVTRFVSSSQRMLTTDDKAVVLKRIHEVHVKMDRSLEYQPVECAIVINAAGAWSAQIAALAGVGEGPPGTLQGTKLPVEPRKRYVYVWHCPQGPGLETPLVADTSGAYFRREGLGSNYLGGRSPTEQEEPDPANLEVDHDFFQDKVWPHLALRVPAFETLKVQSAWAGYYDYNTFDQNGVVGPHPLVVNMYFATGFSGHGLQQAPGIGRAVAEMVLKGRFQTIDLSPFLFTRFYLGEKIQENNII [FOXRED1]”, the “solubility change mitosis (log2)” value in the data set on HeLa Kyoto [1] was determined as 0.0476. The “solubility in G1/S (log2)” value in the data set on HeLa Kyoto [2] was -0.0625. Moreover, the values for the thermal stability score in the data set on HeLa Kyoto [3] (setting [5]) and in the data set with HeLa Kyoto [3] (cell cycle stage: mitosis) were 1.19 and 0.0541, respectively. Moreover, the melting temperature came out at 51.5 °C in the data set with HeLa Kyoto [4] (cell cycle stage: G1/S) and 51.6 °C in the data set on HeLa Kyoto [4] (cell cycle stage: mitosis).
